Consider 8 molecules from article PMC9700037, “Inflammasome sensor NLRP1 disease variant M1184V promotes autoproteolysis and DPP9 complex formation by stabilizing the FIIND domain” (The Journal of Biological Chemistry, 2022).

Data set [1] has as its target T1, Intracellularly biotinylated Avi-His6-tev-DPP9 (UniProt Q86TI2 1-863, biotin (on the Avi tag)).
T1 construct: dipeptidyl peptidase 9 (DPP9); also called biotin-DPP9; immobilized DPP9; source: Sf9 insect cells, intracellularly biotinylated, purified; not shown: Avi, N-terminal, kept; His6, N-terminal, kept
Kind of data set: SPR; biotinylated Avi-His6-tev-DPP9 immobilised on a Series S SA chip (Biacore 8K); monomeric fraction of FIIND proteins (or GST) injected, single-cycle kinetics, 78.125-5000 nM (S1213A from 39.06 nM), 10 mM Hepes pH 7.5, 150 mM NaCl, 0.5 mM TCEP, 0.05% Tween-20. The conditions noted are these: both partners purified.

Data set [2] concerns the molecule itself. Kind of data set: SEC; purified FIIND proteins after removal of GST by TEV, Superose 6 increase (10/300) GL, 0.5 ml/min; fractions checked by SDS-PAGE.
Data set [3] addresses T1, Intracellularly biotinylated …. Kind of data set: SPR; as a3, with 100 μM Val-boroPro (VbP) present in all dilutions of the FIIND domain. The conditions noted are these: both partners purified. (Surface plasmon resonance follows binding to a sensor surface in real time, without labels.)
The target in data set [4] is T2, C-terminal cleavage fragment (UPA) of NLRP1-FIIND (human, UniProt Q9C000 1213-1376).
T2 construct: NLRP1, human, isoform 1; from the autolytic cleavage site (S1213) to the end of the FIIND construct (1376); source: Sf9 insect cells, purified; arises by autoproteolysis of the FIIND construct
T2 sequence (looked up): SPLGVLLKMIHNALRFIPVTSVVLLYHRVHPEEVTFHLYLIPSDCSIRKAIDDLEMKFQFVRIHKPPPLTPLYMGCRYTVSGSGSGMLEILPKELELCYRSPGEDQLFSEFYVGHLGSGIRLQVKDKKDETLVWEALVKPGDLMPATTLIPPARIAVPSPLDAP
Kind of data set: SEC; purified FIIND proteins after removal of GST by TEV, Superose 6 increase (10/300) GL, 0.5 ml/min; fractions checked by SDS-PAGE. The conditions noted are these: both partners purified.

T1 sequence (Q86TI2 whole entry): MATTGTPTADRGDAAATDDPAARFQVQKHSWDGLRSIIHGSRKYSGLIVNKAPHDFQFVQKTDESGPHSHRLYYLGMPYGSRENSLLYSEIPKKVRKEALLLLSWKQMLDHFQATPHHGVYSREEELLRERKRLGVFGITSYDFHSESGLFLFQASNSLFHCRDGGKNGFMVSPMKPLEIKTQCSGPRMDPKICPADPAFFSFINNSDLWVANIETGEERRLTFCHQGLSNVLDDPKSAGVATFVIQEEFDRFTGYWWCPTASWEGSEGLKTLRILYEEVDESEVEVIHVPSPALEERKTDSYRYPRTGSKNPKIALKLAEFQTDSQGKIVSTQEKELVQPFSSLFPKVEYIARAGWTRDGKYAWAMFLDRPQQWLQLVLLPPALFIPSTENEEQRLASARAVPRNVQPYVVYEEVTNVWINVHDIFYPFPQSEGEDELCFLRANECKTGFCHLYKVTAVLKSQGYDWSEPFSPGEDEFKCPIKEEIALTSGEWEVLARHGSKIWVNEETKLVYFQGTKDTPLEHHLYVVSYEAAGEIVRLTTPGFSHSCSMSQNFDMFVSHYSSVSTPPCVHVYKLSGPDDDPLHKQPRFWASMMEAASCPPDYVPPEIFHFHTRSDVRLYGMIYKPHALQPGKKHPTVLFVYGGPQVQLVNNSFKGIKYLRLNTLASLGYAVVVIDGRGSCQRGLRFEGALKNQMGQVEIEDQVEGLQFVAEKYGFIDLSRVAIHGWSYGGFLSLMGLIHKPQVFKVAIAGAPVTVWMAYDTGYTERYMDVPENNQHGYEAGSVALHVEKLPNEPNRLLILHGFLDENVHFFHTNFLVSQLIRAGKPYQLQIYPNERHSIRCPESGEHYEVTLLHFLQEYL

B1: NLRP1-FIIND (wt) (domain or fragment, human, UniProt Q9C000 1064-1376, looked up)
chain: SQGDLHTKPLGTDDDFWGPTGPVATEVVDKEKNLYRVHFPVAGSYRWPNTGLCFVMREAVTVEIEFCVWDQFLGEINPQHSWMVAGPLLDIKAEPGAVEAVHLPHFVALQGGHVDTSLFQMAHFKEEGMLLEKPARVELHHIVLENPSFSPLGVLLKMIHNALRFIPVTSVVLLYHRVHPEEVTFHLYLIPSDCSIRKAIDDLEMKFQFVRIHKPPPLTPLYMGCRYTVSGSGSGMLEILPKELELCYRSPGEDQLFSEFYVGHLGSGIRLQVKDKKDETLVWEALVKPGDLMPATTLIPPARIAVPSPLDAP
notes: NLRP1 FIIND domain (ZU5-UPA), human, residues 1064-1376 of isoform 1; GST is still on the protein during the GST pull-down of the co-expression experiments and is cut off by TEV before SEC, SEC-MALS and SPR; also called wt FIIND protein; NLRP1 FIIND domain; source: also co-expressed with His6-DPP9 and SUMO-UPA in Sf9; not shown: GST, N-terminal, cleaved
On to B1, for which the Kd in data set [1] was found to be 1.9 µM. In addition, in data set [2], the binding result is “binds”.

B2: NLRP1-FIIND (M1184V) (domain or fragment, human, UniProt Q9C000 1064-1376, looked up)
chain: SQGDLHTKPLGTDDDFWGPTGPVATEVVDKEKNLYRVHFPVAGSYRWPNTGLCFVMREAVTVEIEFCVWDQFLGEINPQHSWMVAGPLLDIKAEPGAVEAVHLPHFVALQGGHVDTSLFQVAHFKEEGMLLEKPARVELHHIVLENPSFSPLGVLLKMIHNALRFIPVTSVVLLYHRVHPEEVTFHLYLIPSDCSIRKAIDDLEMKFQFVRIHKPPPLTPLYMGCRYTVSGSGSGMLEILPKELELCYRSPGEDQLFSEFYVGHLGSGIRLQVKDKKDETLVWEALVKPGDLMPATTLIPPARIAVPSPLDAP
notes: NLRP1 FIIND domain (ZU5-UPA), human, residues 1064-1376 of isoform 1, natural variant M1184V; Mostly autocleaved between F1212 and S1213, the fragments stay together; GST is still on the protein during the GST pull-down of the co-expression experiments and is cut off by TEV before SEC, SEC-MALS and SPR; also called M1184V variant FIIND; source: also co-expressed with His6-DPP9 with or without …
As to B2, the Kd in data set [3] was 3.65 µM; in data set [1], 3.5 µM.

B3: NLRP1-FIIND (M1184V S1213A) (domain or fragment, human, UniProt Q9C000 1064-1376, looked up)
chain: SQGDLHTKPLGTDDDFWGPTGPVATEVVDKEKNLYRVHFPVAGSYRWPNTGLCFVMREAVTVEIEFCVWDQFLGEINPQHSWMVAGPLLDIKAEPGAVEAVHLPHFVALQGGHVDTSLFQVAHFKEEGMLLEKPARVELHHIVLENPSFAPLGVLLKMIHNALRFIPVTSVVLLYHRVHPEEVTFHLYLIPSDCSIRKAIDDLEMKFQFVRIHKPPPLTPLYMGCRYTVSGSGSGMLEILPKELELCYRSPGEDQLFSEFYVGHLGSGIRLQVKDKKDETLVWEALVKPGDLMPATTLIPPARIAVPSPLDAP
notes: NLRP1 FIIND domain, human, residues 1064-1376 of isoform 1, M1184V and S1213A; Uncleaved single chain; GST kept during the GST pull-down of the co-expression, cut off by TEV afterwards; also called cleavage-deficient FIIND mutant (M1184V–S1213A); source: also co-expressed with His6-DPP9 in Sf9; not shown: GST, N-terminal, cleaved
For the molecule B3, the Kd in data set [1] was 2.9 µM.

B4: NLRP1-FIIND (P1214R) (domain or fragment, human, UniProt Q9C000 1064-1376, looked up)
chain: SQGDLHTKPLGTDDDFWGPTGPVATEVVDKEKNLYRVHFPVAGSYRWPNTGLCFVMREAVTVEIEFCVWDQFLGEINPQHSWMVAGPLLDIKAEPGAVEAVHLPHFVALQGGHVDTSLFQMAHFKEEGMLLEKPARVELHHIVLENPSFSRLGVLLKMIHNALRFIPVTSVVLLYHRVHPEEVTFHLYLIPSDCSIRKAIDDLEMKFQFVRIHKPPPLTPLYMGCRYTVSGSGSGMLEILPKELELCYRSPGEDQLFSEFYVGHLGSGIRLQVKDKKDETLVWEALVKPGDLMPATTLIPPARIAVPSPLDAP
notes: NLRP1 FIIND domain, human, residues 1064-1376 of isoform 1, patient mutation P1214R; not shown: GST, N-terminal, cleaved
In data set [1], B4 displayed a Kd of 3.43 µM.

B5: NLRP1-FIIND (M1184V–P1214R) (domain or fragment, human, UniProt Q9C000 1064-1376, looked up)
chain: SQGDLHTKPLGTDDDFWGPTGPVATEVVDKEKNLYRVHFPVAGSYRWPNTGLCFVMREAVTVEIEFCVWDQFLGEINPQHSWMVAGPLLDIKAEPGAVEAVHLPHFVALQGGHVDTSLFQVAHFKEEGMLLEKPARVELHHIVLENPSFSRLGVLLKMIHNALRFIPVTSVVLLYHRVHPEEVTFHLYLIPSDCSIRKAIDDLEMKFQFVRIHKPPPLTPLYMGCRYTVSGSGSGMLEILPKELELCYRSPGEDQLFSEFYVGHLGSGIRLQVKDKKDETLVWEALVKPGDLMPATTLIPPARIAVPSPLDAP
notes: NLRP1 FIIND domain, human, residues 1064-1376 of isoform 1, M1184V and P1214R; they were combined here by mutagenesis; also called M1184V–P1214R double mutation; not shown: GST, N-terminal, cleaved
With B5, in data set [1], the affinity, expressed as Kd, was 4.5 µM.

B6: NLRP1-FIIND (S1213A) (domain or fragment, human, UniProt Q9C000 1064-1376, looked up)
chain: SQGDLHTKPLGTDDDFWGPTGPVATEVVDKEKNLYRVHFPVAGSYRWPNTGLCFVMREAVTVEIEFCVWDQFLGEINPQHSWMVAGPLLDIKAEPGAVEAVHLPHFVALQGGHVDTSLFQMAHFKEEGMLLEKPARVELHHIVLENPSFAPLGVLLKMIHNALRFIPVTSVVLLYHRVHPEEVTFHLYLIPSDCSIRKAIDDLEMKFQFVRIHKPPPLTPLYMGCRYTVSGSGSGMLEILPKELELCYRSPGEDQLFSEFYVGHLGSGIRLQVKDKKDETLVWEALVKPGDLMPATTLIPPARIAVPSPLDAP
notes: NLRP1 FIIND domain, human, residues 1064-1376 of isoform 1, S1213A (no autoproteolysis); Uncleaved single chain; also called autoproteolysis-deficient NLRP1-FIIND; not shown: GST, N-terminal, cleaved
Consider B6, for which, in data set [1], binding was characterised by a dissociation constant (Kd) of 1.55 µM. Further, in data set [2], the binding result is listed as “binds”.

B7: N-terminal cleavage fragment (ZU5) of NLRP1-FIIND wt (domain or fragment, human, UniProt Q9C000 1064-1212, looked up)
chain: SQGDLHTKPLGTDDDFWGPTGPVATEVVDKEKNLYRVHFPVAGSYRWPNTGLCFVMREAVTVEIEFCVWDQFLGEINPQHSWMVAGPLLDIKAEPGAVEAVHLPHFVALQGGHVDTSLFQMAHFKEEGMLLEKPARVELHHIVLENPSF
notes: NLRP1, human, isoform 1; from the start of the FIIND construct (1064) to the autolytic cleavage site (peptide bond F1212-S1213); source: Sf9 insect cells, purified; arises by autoproteolysis of the FIIND construct; not shown: GST, N-terminal, cleaved
Take B7: the binding result in data set [4] is “binds”.

B8: N-terminal cleavage fragment (ZU5) of NLRP1-FIIND M1184V (domain or fragment, human, UniProt Q9C000 1064-1212, looked up)
chain: SQGDLHTKPLGTDDDFWGPTGPVATEVVDKEKNLYRVHFPVAGSYRWPNTGLCFVMREAVTVEIEFCVWDQFLGEINPQHSWMVAGPLLDIKAEPGAVEAVHLPHFVALQGGHVDTSLFQVAHFKEEGMLLEKPARVELHHIVLENPSF
notes: NLRP1, human, isoform 1, natural variant M1184V; from the start of the FIIND construct (1064) to the autolytic cleavage site (peptide bond F1212-S1213); source: Sf9 insect cells, purified; arises by autoproteolysis of the FIIND construct; not shown: GST, N-terminal, cleaved
For B8, the binding result in data set [4] was “binds”.

A word on the Kd: it is the concentration at which binding is half-saturated.
